Reference: patent US20260167721A1 (ABLEXIS, published 2026)

How the values were obtained:
[1] = biological target: T1, recombinant human CD3 epsilon/gamma heterodimer (human, UniProt P07766 23-126; P09693 23-116); experiment: Octet BLI, mAb on FAB2G sensor, hCD3 E/G 200-50 nM; R^2 0.34
T1 construct: Recombinant protein in solution (200-50 nM) in the Octet assay; also called hCD3 E/G

[2] = biological target: T2, recombinant human CD3 epsilon/delta heterodimer (human, UniProt P07766 23-126; P04234 22-105); experiment: Octet BLI, mAb on FAB2G sensor, hCD3 E/D 200-50 nM; R^2 0.96
T2 construct: Recombinant protein in solution (200-50 nM) in the Octet assay; also called hCD3 E/D; human CD3E/D
T2 sequence (P07766 23-126, stated change not applied, chain 1 of 2): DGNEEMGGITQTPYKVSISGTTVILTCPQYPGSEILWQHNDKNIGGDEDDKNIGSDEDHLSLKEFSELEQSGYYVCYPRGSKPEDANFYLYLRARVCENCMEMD
T2 sequence (P04234 22-105, stated change not applied, chain 2 of 2): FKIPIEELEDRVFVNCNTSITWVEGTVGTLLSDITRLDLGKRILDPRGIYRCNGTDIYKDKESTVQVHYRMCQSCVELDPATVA
Procedure: Samples were evaluated by flow cytometry analysis against Jurkat and human Pan-T cells (FIG. 1B) as well as by Octet against recombinant human CD3 proteins to evaluate apparent affinities and binding off-rates (Table 6, infra).

recombinant CD3 proteins [3] = biological target: T3, recombinant CD3 proteins (UniProt P07766 23-126); experiment: Octet BLI, recombinant CD3; Full R^2 0.984
T3 construct: elsewhere it uses human CD3 E/D and E/G heterodimers
T3 sequence (P07766 23-126): as the sequence (P07766 23-126, stated change not applied, chain 1 of 2) above

recombinant CD3 proteins [4] = biological target: T3, recombinant CD3 proteins; experiment: Octet BLI, recombinant CD3; Full R^2 0.989
recombinant CD3 proteins [5] = biological target: T3, recombinant CD3 proteins; experiment: Octet BLI, recombinant CD3; Full R^2 0.986
recombinant CD3 proteins [6] = biological target: T3, recombinant CD3 proteins; experiment: Octet BLI, recombinant CD3; Full R^2 0.985
recombinant CD3 proteins [7] = biological target: T3, recombinant CD3 proteins; experiment: Octet BLI, recombinant CD3; Full R^2 0.814*
recombinant CD3 proteins [8] = biological target: T3, recombinant CD3 proteins; experiment: Octet BLI, recombinant CD3; Full R^2 0.557*

T1 sequence (P07766 23-126, chain 1 of 2): as the sequence (P07766 23-126, stated change not applied, chain 1 of 2) above
T1 sequence (P09693 23-116, chain 2 of 2): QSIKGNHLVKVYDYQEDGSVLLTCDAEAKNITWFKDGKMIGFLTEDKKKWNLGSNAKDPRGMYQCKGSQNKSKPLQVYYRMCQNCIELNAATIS

B1: ABL-CD3-13 (antibody, V domains shown)
VH: EVQLVESGGGLVQPGGSLRLSCAASGFTFSNYWMSWVRQAPGKGLEWVANIKEDGSEKYYVDSVKGRFTISRDNAKNSLYLQMNSLTAEDTSVYYCARERRTGYFDYWGQGTLVTVSS
VL: DIQMTQSPSTLSASVGDRVTITCRASQSISNWLAWYQQKPGKAPNLLIYKASSLESGVPSRFSGSGSGTEFTLTISSLQPDDFANYYCQQYKSYSWTFGQGTKVEIK
notes: Chimeric hybridoma mAb: human V, CH1, upper hinge; mouse middle hinge, CH2, CH3
Kd [1]: < 0.001 nM | koff [1]: < 1e-07 s⁻¹ | kon [1]: 26700 M⁻¹ s⁻¹ | Kd [2]: 23.4 nM | Response [2]: 0.08 | koff [2]: 0.000728 s⁻¹ | kon [2]: 31200 M⁻¹ s⁻¹

B2: CD3 × CD33-BspAb117 (bispecific antibody)
chain 1: NFMLTQPHSVSESPGKTVTISCTRSSGSIASNYVQWYQQRPGSSPTSVIYEDNQRPSGVPDRFSGSIDSSSNSASLTISGLKTEDEADYYCQSYDRSNRVFGCGTKLTVLGGGGSGGGGSGGGGSGGGGSEVQLVESGGGLVKPGGSLRLSCAASGLTFSTYSMNWVRQAPGKCLEWVSSISSSGSYVYYADSVKGRFTMSRDNAKNSLYLQMNSLRAEDTAVYYCARERRELLFDYWGQGTLVTVSSDKTHTCPPCPAPEFEGGPSVFLFPPKPKDTLMISRTPEVTCVVVDVSHEDPEVKFNWYVDGVEVHNAKTKPREEQYNSTYRVVSVLTVLHQDWLNGKEYKCKVSNKALPASIEKTISKAKGQPREPQVYTLPPCREEMTKNQVSLWCLVKGFYPSDIAVEWESNGQPENNYKTTPPVLDSDGSFFLYSKLTVDKSRWQQGNVFSCSVMHEALHNHYTQKSLSLSPGK
chain 2: EVQLVQSGAEVKKPGSSVKVSCKASGYTITDSNIHWVRQAPGQSLEWIGYIYPYNGGTDYNQKFKNRATLTVDNPTNTAYMELSSLRSEDTAFYYCVNGNPWLAYWGQGTLVTVSSASTKGPSVFPLAPSSKSTSGGTAALGCLVKDYFPEPVTVSWNSGALTSGVHTFPAVLQSSGLYSLSSVVTVPSSSLGTQTYICNVNHKPSNTKVDKRVEPKSCDKTHTCPPCPAPEFEGGPSVFLFPPKPKDTLMISRTPEVTCVVVDVSHEDPEVKFNWYVDGVEVHNAKTKPREEQYNSTYRVVSVLTVLHQDWLNGKEYKCKVSNKALPASIEKTISKAKGQPREPQVCTLPPSREEMTKNQVSLSCAVKGFYPSDIAVEWESNGQPENNYKTTPPVLDSDGSFFLVSKLTVDKSRWQQGNVFSCSVMHEALHNRFTQKSLSLSPGK
chain 3: DIQLTQSPSTLSASVGDRVTITCRASESLDNYGIRFLTWFQQKPGKAPKLLMYAASNQGSGVPSRFSGSGSGTEFTLTISSLQPDDFATYYCQQTKEVPWSFGQGTKVEVKRTVAAPSVFIFPPSDEQLKSGTASVVCLLNNFYPREAKVQWKVDNALQSGNSQESVTEQDSKDSTYSLSSTLTLSKADYEKHKVYACEVTHQGLSSPVTKSFNRGEC
Kd (recombinant CD3 proteins [3]): 16.6 nM | koff (recombinant CD3 proteins [3]): 0.00554 s⁻¹ | kon (recombinant CD3 proteins [3]): 335000 M⁻¹ s⁻¹

B3: CD3 × CD33-BspAb118 (bispecific antibody)
chain 1: FMLTQPHSVSESPGKTVTISCTRSSGSIASNYVQWYQQRPGSSPTTVIYEDNQRPSGVPDRFSGSIDSSSNSASLTISGLQTEDEADYYCQSYDSSNRVFGCGTKLTVLGGGGSGGGGSGGGGSGGGGSEVQLVESGGGLVKPGGSLRLSCVASGFTFSRYSMNWVRQAPGKCLEWVSSISSSSRYTYYADSLKGRFIMSRDNAKNSLFLQMNSLRAEDTAVYYCARNLYNALDYWGQGTLVTVSSDKTHTCPPCPAPEFEGGPSVFLFPPKPKDTLMISRTPEVTCVVVDVSHEDPEVKFNWYVDGVEVHNAKTKPREEQYNSTYRVVSVLTVLHQDWLNGKEYKCKVSNKALPASIEKTISKAKGQPREPQVYTLPPCREEMTKNQVSLWCLVKGFYPSDIAVEWESNGQPENNYKTTPPVLDSDGSFFLYSKLTVDKSRWQQGNVFSCSVMHEALHNHYTQKSLSLSPGK
chain 2: B2 chain 2
chain 3: B2 chain 3
Kd (recombinant CD3 proteins [4]): 1.91 nM | koff (recombinant CD3 proteins [4]): 0.000767 s⁻¹ | kon (recombinant CD3 proteins [4]): 403000 M⁻¹ s⁻¹

B4: CD3 × CD33-BspAb119 (bispecific antibody)
chain 1: NFMLTQPHSVSESPGKTVTISCTRSSGSIASNYVQWYQQRPGSSPTTVIYEDNQRPSGVPDRFSGSIDSSSNSASLTISGLKTEDEADYYCQSYDSSNRVFGCGTKLTVLGGGGSGGGGSGGGGSGGGGSEVQVAESGGGLVKPGGSLRLSCAASGFTFSRYSMNWVRQAPGKCLEWVSSISSSGSYTYYADSVKGRFTISRDNAKNSLYLQMNSLRAEDTAVYYCVRERGKGAGMDVWGQGTTVTVSSDKTHTCPPCPAPEFEGGPSVFLFPPKPKDTLMISRTPEVTCVVVDVSHEDPEVKFNWYVDGVEVHNAKTKPREEQYNSTYRVVSVLTVLHQDWLNGKEYKCKVSNKALPASIEKTISKAKGQPREPQVYTLPPCREEMTKNQVSLWCLVKGFYPSDIAVEWESNGQPENNYKTTPPVLDSDGSFFLYSKLTVDKSRWQQGNVFSCSVMHEALHNHYTQKSLSLSPGK
chain 2: B2 chain 2
chain 3: B2 chain 3
Kd (recombinant CD3 proteins [5]): 21.7 nM | koff (recombinant CD3 proteins [5]): 0.00688 s⁻¹ | kon (recombinant CD3 proteins [5]): 317000 M⁻¹ s⁻¹

B5: CD3 × CD33-BspAb120 (bispecific antibody)
chain 1: NFMLTQPHSVSESPGKTVAISCTRSSGSIASNYVQWYQQRPGSSPTAVIYEDNQRPSGVPDRFSGSIDSSSNSAFLTISGLKTEDEADYYCQSYDSSNRVFGCGTKLTVLGGGGSGGGGSGGGGSGGGGSEVQLVESGGGLVKPGGSLRLSCAASGFTFSSYSMNWVRQAPGKCLEWVSSISRSSGYIFYADSVKGRFTISRDNAKNSLYLQMNSLRAEDTAVYYCVRERVGAGFDYWGQGTLVTVSSDKTHTCPPCPAPEFEGGPSVFLFPPKPKDTLMISRTPEVTCVVVDVSHEDPEVKFNWYVDGVEVHNAKTKPREEQYNSTYRVVSVLTVLHQDWLNGKEYKCKVSNKALPASIEKTISKAKGQPREPQVYTLPPCREEMTKNQVSLWCLVKGFYPSDIAVEWESNGQPENNYKTTPPVLDSDGSFFLYSKLTVDKSRWQQGNVFSCSVMHEALHNHYTQKSLSLSPGK
chain 2: B2 chain 2
chain 3: B2 chain 3
Kd (recombinant CD3 proteins [6]): 69 nM | koff (recombinant CD3 proteins [6]): 0.0189 s⁻¹ | kon (recombinant CD3 proteins [6]): 274000 M⁻¹ s⁻¹

B6: CD3 × CD33-BspAb121 (bispecific antibody)
chain 1: QTVVTQEPSLTVSPGGTVTLTCASSTGAVTSGYYPNWFQQKPGQAPRALIYSTSNKHSWTPARFSGSLLGGKAALTLSGVQPEDEAEYYCLLYYGGAYVFGCGTKVTVLGGGGSGGGGSGGGGSGGGGSEVQLVESGGGLVKPGGSLRLSCAASGFTFSSYSMNWVRQAPGKCLEWVSSISRSGTYIYYADSVKGRFTISRDNAKNSLYLQMNSLRAEDTAVYYCARERWELLYFDYWGQGTLVTVSSDKTHTCPPCPAPEFEGGPSVFLFPPKPKDTLMISRTPEVTCVVVDVSHEDPEVKFNWYVDGVEVHNAKTKPREEQYNSTYRVVSVLTVLHQDWLNGKEYKCKVSNKALPASIEKTISKAKGQPREPQVYTLPPCREEMTKNQVSLWCLVKGFYPSDIAVEWESNGQPENNYKTTPPVLDSDGSFFLYSKLTVDKSRWQQGNVFSCSVMHEALHNHYTQKSLSLSPGK
chain 2: B2 chain 2
chain 3: B2 chain 3
Kd (recombinant CD3 proteins [7]): 1210 nM | koff (recombinant CD3 proteins [7]): 0.0216 s⁻¹ | kon (recombinant CD3 proteins [7]): 17900 M⁻¹ s⁻¹

B7: CD3 × CD33-BspAb122 (bispecific antibody)
chain 1: QTVVTQEPSFSVSPGGTVTLTCGLSSGSVSTSYYPSWYQQTPGQAPRTLIYSTNTRSSGVPDRFSGSILGNKAALTITGAQADDESDYYCVLYMGSGIWVFGCGTKLTVLGGGGSGGGGSGGGGSGGGGSEVQLVESGGGLVKPGGSLRLSCAASGFTVSNYSMNWVRQAPGKCLEWVSSISRSSSYIYYADSVKGRFTISRDNAKNSLFLQMNSLRAEDTAVYYCARERWELLYFDYWGQGTLVTVSSDKTHTCPPCPAPEFEGGPSVFLFPPKPKDTLMISRTPEVTCVVVDVSHEDPEVKFNWYVDGVEVHNAKTKPREEQYNSTYRVVSVLTVLHQDWLNGKEYKCKVSNKALPASIEKTISKAKGQPREPQVYTLPPCREEMTKNQVSLWCLVKGFYPSDIAVEWESNGQPENNYKTTPPVLDSDGSFFLYSKLTVDKSRWQQGNVFSCSVMHEALHNHYTQKSLSLSPGK
chain 2: B2 chain 2
chain 3: B2 chain 3
Kd (recombinant CD3 proteins [8]): < 0.001 nM | koff (recombinant CD3 proteins [8]): < 1e-07 s⁻¹ | kon (recombinant CD3 proteins [8]): 15400 M⁻¹ s⁻¹
